Data set [1] can be described thus: Blood brain barrier crossing: subcutaneous osteocalcin infusion, content measured in blood, bone and parts of the brain by ELISA. The class given is in vivo, mouse. Conditions: subcutaneous pump, uncarboxylated osteocalcin 50 ng/hour, seven days, three-month-old Osteocalcin-/- mice. As to the method: FIG. 3. Osteocalcin binds to neurons in the brain. (A) Measurement of the total osteocalcin in 3 month-old Osteocalcin^−/− mice infused subcutaneously for 7 days with either uncarboxylated osteocalcin (300 ng/hour, right panel) or PBS (left panel). Osteocalcin levels were measured in bone, serum, and different parts of the brain (cortex, midbrain, hypothalamus, brainstem, and cerebellum). (B) Subcutaneous infusion of leptin ([…], right panel) or PBS (left panel) for 7 days in ob/ob mice. Leptin levels were measured in serum, cortex, midbrain, hypothalamus, brainstem, and cerebellum. […]
Osteocalcin^−/−, Gprc6a^−/−, Osteocalcin-mCherry, and Osteocalcin floxed mice have been previously described (Ducy et al., 1996, Nature 382:448-452; Oury et al., 2011, Cell 144:796-809). Mouse genotypes were determined by PCR. […] Leptin and osteocalcin content in sera and tissues were determined by ELISA.
To understand how this behavioral phenotype develops, whether osteocalcin crosses the blood brain barrier (BBB) was tested by installing pumps that subcutaneously delivered vehicle or uncarboxylated osteocalcin (50 ng/hour) in three-month-old Osteocalcin^−/− mice. […] Seven days later, osteocalcin and leptin content were measured in blood, bone, and in various parts of the brain in Osteocalcin−/− and ob/ob mice, respectively. […]
Background: ELISA stands for enzyme-linked immunosorbent assay.

In data set [2] the test system is Osteocalcin-/- mice born from Osteocalcin-/- mothers. In words: Osteocalcin injections in pregnant Osteocalcin-/- mothers (E0.5-E18.5): offspring behavior and brain histology. It is filed as in vivo, mouse. As to the method: FIG. 7. Maternal osteocalcin determines spatial learning and memory in adult offspring. (A-F) DLT (A), EPMT (B), OFT (C), FST (D), TST (E), and MWMT (F) performed in 3-month-old Ocn^−/− mice born from Ocn^−/− mothers injected once a day with vehicle or osteocalcin (240 ng/day) during pregnancy compared to WT mice. (G) Surface of the lateral ventricle over brain area (%) of E18.5 hippocampi coronal sections of WT embryos originating from WT mothers and Ocn^−/− embryos originating from osteocalcin-injected Ocn^−/− mothers. (H) Number of apoptotic cells (stained by TUNEL assay) of E18.5 hippocampi coronal sections of WT embryos originating from WT mothers and Ocn^−/− embryos originating from Ocn^−/− mothers injected with osteocalcin (240 ng/day). (I) Cresyl violet, NeuN immunofluorescence, and dentate gyms area (% versus WT) of WT and Ocn^−/− embryos originating from osteocalcin-injected Ocn^−/− mothers. Scale bars=0.5 mm.
Osteocalcin^−/−, Gprc6a^−/−, Osteocalcin-mCherry, and Osteocalcin floxed mice have been previously described (Ducy et al., 1996, Nature 382:448-452; Oury et al., 2011, Cell 144:796-809). Mouse genotypes were determined by PCR. For all experiments, controls were littermate female WT, Cre-expressing, or flox/flox. All mice were maintained on a pure 129-Sv genetic background except for the inducible deletion Osteocalcin model (mix background: 25% C57/BL6 and 75% 129sv). For inducible gene deletion mice, tamoxifen was prepared in corn oil and injected intraperitoneally (IP) (1 mg/20 g of body weight) over one week. For osteocalcin delivery to pregnant mice, IP injections (240 ng/day) were performed as soon as a plug was present daily until delivery (E0.5-E18.5). For osteocalcin or leptin infusion in adult Osteocalcin^−/− or ob/ob mice, pumps (Alzet micro-osmotic pump, Model 1002) delivering osteocalcin (300 ng/hr), leptin (50 ng/hr), or vehicle were surgically installed subcutaneously in the backs of 3-month old mice. For the postnatal rescue of cognitive functions in Osteocalcin^−/− mice, osteocalcin (10 ng/hour) or vehicle were delivered intrasubventricularly (icy) as previously described (Ducy et al., 2000, Cell 100:197-207). Leptin and osteocalcin content in sera and tissues were determined by ELISA.
Cresyl violet staining to visualize brain morphology was carried out by incubating 20 μm cryosections defatted with 1:1 chloroform:ethanol in cresyl violet acetate (1 g/L) overnight. The stain was differentiated using ethanol and xylene and mounted using DPX mounting medium for histology (Sigma).
To assess apoptosis in WT and Osteocalcin^−/− brains, 20 μm cryostat sections were processed using the APOPTAG® Fluorescein Direct In Situ Apoptosis Detection Kit (Millipore) according to manufacturer's protocol. Images were obtained using Leica DM 4000B, and Image J was used to quantify cell number and intensity of staining.
For western blotting, frozen hippocampi from E18.5 embryos were lysed and homogenized in 250 μl tissue lysis buffer (25 mM Tris HCl 7.5; 100 mM NaF; 10 mM Na4P2O7; 10 mmM EDTA; 1% NP 40). Samples were pooled together in threes by genotype to reduce variability. Proteins were transferred to nitrocellulose membranes and blocked with TBST-5% milk prior to overnight incubation with primary antibody in TBST-5% BSA. HRP-coupled secondary antibodies and ECL were used to visualize the signal.
To further evaluate the importance of maternal osteocalcin for the acquisition of spatial learning and memory in adult offspring, pregnant Osteocalcin^−/− mothers from E0.5 to E18.5 were treated with injections, once a day, of osteocalcin (240 ng/day). Osteocalcin was never injected in these females or their pups after delivery. […] Likewise, the number of apoptotic cells was reduced and the number of NeuN positive cells was increased compared to Osteocalcin^−/− embryos originating from Osteocalcin^−/− mothers that were not injected (FIG. 7I-J).

Where [3] appears, read: 240 ng/day once a day to pregnant Osteocalcin-/- mothers, E0.5 to E18.5.

B1: uncarboxylated osteocalcin: Recombinant osteocalcin bacterially produced, cleaved from the GST subunit; completely undercarboxylated at all three sites (protein, listed as Homo sapiens)
chain: MRALTLLALLALAALCIAGQAGAKPSGAESSKGAAFVSKQEGSEVVKRPRRYLYQWLGAPVPYPDPLEPRREVCELNPDCDELADHIGFQEAYRRFYGPV
modifications: uncarboxylated
notes: Recombinant osteocalcin bacterially produced, cleaved from the GST subunit; completely undercarboxylated at all three sites
B1: the “osteocalcin concentration in brainstem, thalamus and hypothalamus relative to that observed in serum” value in data set [1] is about 50%. Further, in data set [2] (setting [3]), the “anxiety or depression phenotypes of adult offspring” value is reported as “did not have any beneficial effect”; the “deficit in learning and memory of adult offspring” value is on record as “rescued over two third of their deficit”. Besides, in data set [2] (injection of the pregnant Osteocalcin-/- mothers, 240 ng/day), the “cerebral ventricle enlargement in brains of E18.5 Osteocalcin-/- embryos (cresyl violet)” value is reported as “rescue of the cerebral ventricle enlargement”. Moreover, the “thickness defect in the CA3 and CA4 regions of the hippocampus in adult Osteocalcin-/- offspring” value in data set [2] (mothers injected during pregnancy) is on record as “rescue of the thickness defect”. Moreover, in data set [2] (versus embryos from Osteocalcin-/- mothers not injected), the “number of NeuN positive cells” value is recorded as “increased”. Further, the “number of apoptotic cells in E18.5 embryo hippocampus” value in data set [2] (versus embryos from Osteocalcin-/- mothers not injected, listed as Uncarboxylated osteocalcin) is “prevent this neuronal apoptosis”. In data set [2] (versus embryos from Osteocalcin-/- mothers not injected, listed as osteocalcin), the “number of apoptotic cells in E18.5 embryo hippocampus” value is reported as “reduced”. The “Caspase-3 cleaved protein level in hippocampus of E18.5 embryos (Western blot)” value in data set [2] (versus embryos from mothers not injected) is listed as “decrease”.

(Values after US10052364B2, “Osteocalcin as a treatment for cognitive disorders” (THE TRUSTEES OF COLUMBIA UNIVERSITY IN THE CITY OF NEW YORK, priority 2013, dated 2018).)
